Measured values as given in publication PMC7612645.

Columns and labels:
[1] = molecular target: HBV core protein (Cp) dimer (Hepatitis B virus) (UniProt P03146); experiment: NCP reassembly, SEC-MALLS with RNase A challenge; conditions: 20 mM HEPES pH 7.5, 250 mM NaCl, 5 mM DTT, DMSO +/- compound, <0.15 M GuHCl, room temperature; Cp titrated in 10 steps to 1.2 uM
[2] = molecular target: HBV core protein (Cp) dimer (Hepatitis B virus) (UniProt P03146); experiment: fluorescence anisotropy; conditions: 20 mM HEPES pH 7.5, 250 mM NaCl, 5 mM DTT, DMSO +/- compound, <0.15 M GuHCl, room temperature; Cp titrated in 10 steps to 1.2 uM; scale: normalized anisotropy change vs no compound

Sequence of HBV core protein (Cp) dimer (Hepatitis B virus) (P03146 whole entry): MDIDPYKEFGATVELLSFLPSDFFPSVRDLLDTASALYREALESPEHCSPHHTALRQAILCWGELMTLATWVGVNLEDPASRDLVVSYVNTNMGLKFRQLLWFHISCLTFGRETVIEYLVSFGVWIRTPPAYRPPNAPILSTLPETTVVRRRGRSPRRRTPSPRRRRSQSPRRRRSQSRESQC

Row | Substance | binding signal (% NCP yield vs control) [1] | binding signal [2]
1 | HBV gRNA transcript | 90 | –
2 | HBV gRNA transcript, dye-labelled | – | 0.477
